Reference: PMC7356742

What was measured:
[1] = test system: RsuA G127C-Cy5 (Escherichia coli); experiment: FRET; conditions: 4 mM Mg2+, FRET: 80 mM K-Hepes pH 7.6, 330 mM KCl, 0-20 mM MgCl2, 2 nM RNA folded at 37 C. Filter binding: 80 mM K-Hepes pH 7.6, 50 mM KCl, 4 mM MgCl2, 6 mM …; for binding signal: scale: fold higher affinity than wild type
[2] = test system: RsuA wild type (Escherichia coli); experiment: filter binding; conditions: 4 mM Mg2+; fit 0-2 uM, bound fraction falls above 2 uM; FRET: 80 mM K-Hepes pH 7.6, 330 mM KCl, 0-20 mM MgCl2, 2 nM RNA folded at 37 C. Filter binding: 80 mM K-Hepes pH 7.6, 50 mM KCl, 4 mM MgCl2, 6 mM …
[3] = test system: RsuAΔN (S4-like domain truncation) (Escherichia coli); experiment: filter binding; conditions: 4 mM Mg2+; fit 0-15 uM; FRET: 80 mM K-Hepes pH 7.6, 330 mM KCl, 0-20 mM MgCl2, 2 nM RNA folded at 37 C. Filter binding: 80 mM K-Hepes pH 7.6, 50 mM KCl, 4 mM MgCl2, 6 mM …

16S 5'-domain C507G
binding signal (fold lower Kd than wild type (3.9 nM)) [1]: 390

16S 5'-domain G505C
binding signal [1]: > 30

16S 5'-domain G505C:G506C
binding signal [1]: > 30

16S 5'-domain rRNA (filter binding)
Kd [2]: 12 nM
Kd [3]: 57 nM
